{"source": "the DeepSol protein solubility set"}
{"experiment": "soluble on expression in E. coli; label from the status in PepcDB or PDB records"}
{"sequence": "MDTLQFQKNPETAAKMSAYMKHQFVFAGIPAPERQALSKQLLKESHTWPKEKLCQEIEAYYQKTEREYQYVAIDLALQNVQRFSLEEVVAFKAYVPQKAWWDSVDAWRKFFGSWVALHLTELPTIFALFYGAENFWNRRVALNLQLMLKEKTNQDLLKKAIIYDRTTEEFFIQKAIGWSLRQYSKTNPQWVEELMKELVLSPLAQREGSKYLAKASE", "soluble on expression in E. coli": "soluble"}
{"sequence": "MDTPFIVFWELTRACMLACKHCRAKAIRKRHPDELTTEECFNVIDQLSEFNPKPLLIITGGDPLMRDDVTEIISHAAEKGFRVAIAFSGTEKATEEKLRELKEAGVARVAVSIDGSDEEKHDSFRGVRGTFRMSMMAIENAKKAGLPFQINTTVTRENIEDLPNIARLCLELGAVMWDVFFVVPTGRAKAEMMPTPQQFE", "soluble on expression in E. coli": "not soluble"}
{"sequence": "MDVEAFYKISYGLYIVTSESNGRKCGQIANTVFQLTSKPVQIAVCLNKENDTHNAVKESGAFGVSVLELETPMEFIGRFGFRKSSEFEKFDGVEYKTGKTGVPLVTQHAVAVIEAKVVKECDVGTHTLFVGEAVDAEVLKDAEVLTYADYHLMKKGKTPRTATVYFESK", "soluble on expression in E. coli": "soluble"}
{"sequence": "MDVKWEGFSGVEMEEVKRNVFLTTLEQLKGWARSSSLWPLTFGLACCAIEMMAVGGAHYDLDRFGSFFRASPRQADVMIVSGTVTKKMAPLLRRLYDQMPEPKWVIAMGSCATAGGPYVKSYSVVKGVDQIVPVDVYIPGCPPNPAALIYGIHKLKEKIRLEAKTGKKVL", "soluble on expression in E. coli": "not soluble"}
{"sequence": "MDVLEISKKILHEGPVCDHCMGRQFAKLSTGLSNRERGQAVKLALALEGDRIYKSENDDSLLKELAPCSALARKTLRIEGENEQCWVCLDQFKKLDFWAEEAAKALEGLEYSTFLVGTKVSGLLSENEEILWAEAGTAYAEQLKTELNREVGKRIAERVNKEVDFENPDIVITLDLATNKFELQVRSVYIYGRYLKKVRGIPQTRWPCRKCRGKGCEKCGFTGKQYPESVDELIKGPVVEAFEAVDTAFHGSGREDIDALMLGSGRPFVVEAKSPVKRSADLEALAAKINENAAGKVEVRDLRFVEKGMIETLKSSKADKTYKLKVTFKEPVSEEKLKSCLESLNGTEIAQQTPKRVVHRRADLIRKRYVHSITLNELTDDGYAYITVNCEGGLYVKELISGDEGRTNPSLTGLLGIPALVEDLDVVNVEILEHHHHHH", "soluble on expression in E. coli": "soluble"}
{"sequence": "MDVSEGGVTVSVPTASGGGEGAADDVFFNATQELNRDLTVATLAAFREREPRAASYLDAMTASGIRGVRAANAGWDVTMADVDADAVELATSNLARNGLDGEVVARDANSLLHDHDRVLDVVDIDPFGSPMPFADAAFANARNLVCVTATDTAPLCGAHFESGVRKYSATPRNTNYHAEMGLRILLGALARTAARYDVGVTPILSHVSDHYVRTYLELDHRATDANAAVEQVGHVYHCQQCLSRDHEYGLVAAPRAECPRCGGHQVLTAGPLWLGPAHEEAFAASVREQLTREMGEASQAFHLLQTIEGELHEPTHYDQHRLYSQWGEPAVGMAEFLDQLRDAGLRASRTHFGGTTFKTDGGLAEVEAAVLLEHHHHHH", "soluble on expression in E. coli": "soluble"}
{"sequence": "MDVYHDGACPEVKPVDNFDWSQYHGKWWEVAKYPSPNGKYGKCGWAEYTPEGKSVKVSRYDVIHGKEYFMEGTAYPVGDSKIGKIYHSRTVGGYTKKTVFNVLSTDNKNYIIGYSCRYDEDKKGHWDHVWVLSRSMVLTGEAKTAVENYLIGSPVVDSQKLVYSDFSEAACKVNNSNWSHPQFEK", "soluble on expression in E. coli": "soluble"}
{"sequence": "MDWIQCNHCGIKPNQTKLYLTACGHVFCQNCTKAAFNSQCYLCKKPLKVDEINKNLRPDLMELFKDPRQLASDLVNELKQVVAFQAKQREIYVKCKNAEAKKDTERFAEARSKHVEKTQEIEKRKKAFLEDNVKLKNAKEEKNQLMARLKELREQPSQNLSVNKRRSNTRTEPPFSKISRTGPPSVMRKASHEFSLNLRDQSTSKILTSTPLSNIDYSRRDHRNRLFGAGLEHPSPILRQ", "soluble on expression in E. coli": "soluble"}
{"sequence": "MDYLNYEEIQSLKNSLLHNIKHTYISRYMILTALYTGMRPGEIAVLTWSDIDFKNQTININKSYNHDKGRVDNYDSSEIDKSTKNTNSVRIIKVDKKFLDILSQLKQNDHEKIFIGKDGTIPTSNAVNKVWRKQLEKLNIDKPSFHFHSVRHTHVALLPFKGVPLYAISKRLGHANMSTTAKKYAYMLDELKQQVRLEHHHHHH", "soluble on expression in E. coli": "soluble"}
{"sequence": "MDYTNNQLHVIYGDASLGLEGPNFHYLFSYERGGLESLVVNQKEWLYRTPTPLFWRATTDNDHGNGFDVKAAQWYAADRFTTCQKIDLTVDGQLVQPLPIAPLNNRYTNHEMANQVALTYHFVTPTVPSTSVSITYTVASDGNIKIMTHFAGREGLPELPAFGLRFIMPTTATGFDYQGLSGETYPDRLAGATQGQFHVDGLPVTPYLVPQECGMHMQTSQLTVTRSTTQNNADQSKQPFSLTFSQADQPFAFSCLPYTAAELEQATHLEELPLPRRTVLSIYGAVRGVGGIDSWGADVEAKYHIPANQDLDFSFNIHFLEHHHHHH", "soluble on expression in E. coli": "not soluble"}
{"sequence": "MDYYYYPFVSDPYAVYTPNVWQSQGADELYLYSMPAIERQPQPVLSNAPAQTSIVLFKELTGYPNYGNPSGNADILYTGNRGTWTFDIQPILLIPGNLTAQLVIRGVLDDHTNVPVANYSARITINGTVVHTGRLPLVHGSPAGQRFNNWRLLTFNVPNLRRNNTVVIQNTSNTGPNDWIAFDWMELRLQPR", "soluble on expression in E. coli": "not soluble"}
{"sequence": "MEAEMSDERCALVLEGGAMRGMYTAGVLDCFMDHDISFDAVIGVSAGALFGVNLLSKQRGRVIRYNKRFNSDKNYMGIRPLLREKNIVSTKYAYDTVPRELDPFDDEEYKKSDIPFYAVVTNIRTGKPEYVQIKSVFDQMDVLRASGSMPVVSKPVKLGNEWYLDGAVTDSIPYEHMLDMGYDRVVVVLTKPADYIKKPMPRLFTSVYKKRFPRFYEAFSNRHIMYNYQLEHLKELEKQGIAEVLRPSEHIKISKVEKDPNKLESLYQLGLRDAKRLLADKQGMEKQ", "soluble on expression in E. coli": "not soluble"}
{"sequence": "MEAHNVEISTRLTPEMKNQGTIELLYKALQQGDTSTVTKVVASDVEWWFHGPHDCQHMMRLLTGEPPRQVSFRFEPSSVQVVVPGHDCVIAEGWEGSRVYWVHVWKLKDGVVTELREYFNTWLTVTDYSLGAVGWDMGRCTVWESVPRDLARGSLPSLLLAI", "soluble on expression in E. coli": "soluble"}
{"sequence": "MEALKRKIEEEGVVLSDQVLKVDSFLNHQIDPLLMQRIGDEFASRFAKDGITKIVTIESSGIAPAVMTGLKLGVPVVFARKHKSLTLTDNLLTASVYSFTKQTESQIAVSGTHLSDQDHVLIIDDFLANGQAAHGLVSIVKQAGASIAGIGIVIEKSFQPGRDELVKLGYRVESLARIQSLEEGKVSFVQEVHS", "soluble on expression in E. coli": "soluble"}
{"sequence": "MEANSGGGGGAEGGRAVTGGGGGGGGSDVELVSKTLQVEHKLFYFDLKENPRGRYLKISEKTSATRSTIIVPSSGISWFLDLFNYYVNSEEHELFSKELQLDSKVFYFDIGENRRGRFLKVSEASVSRNRSTIIVPAGSSPDEGWAAFRNILAEIHEASGLFVMPNQKPSDGQEHLVDDVGAGFIPGHGSQQPSSSEHNVDRTIDSPGSDRSSIILPLSGLKQFHEVIGHFVEITKDKIEVLILLEDGNFQSSNHLNLATSSRLPDRGVQ", "soluble on expression in E. coli": "soluble"}
{"sequence": "MEAVGADESYDGQQLYMMLVGHSRMADADRTAILGGTFTPIHNGHRALLHKAFQTASHDGSGDGHVIVGLTSPELATETRSDPTHVKQLGAYDDRRSALASELDQLGEPYTATYEIVRLDDTQGPAATRADVDALVASPEAKAQRRAYELNQQRRESGLHPLEIHTPPFVVAEDGTRISSTRIRNGEIDVHGRLLDASE", "soluble on expression in E. coli": "not soluble"}
{"sequence": "MEAWIAEAKALLAALVAVPSVSAEGRALREGAEKVAEVLEGLGLRAELHEGYGPPVVFAEGGEGERTLLFYNHYDVQPPDPLELWDTDPFVLAEREGAWYARGAHDYKGELVVRVVALRRFQEKHGFLPRVKFVVEGEEEVGSPHLEAYVADKRDLLKAEAILWEAGGVDAKGRPYLYAGLKGIVALELRVRTAAFDLHSSYGAVVENPIYRLSRALASLRDEEGRVLIPGFYAKVRPLTPLEMEVLAQIPDESEALREAFGVRDFLGGARNLDFNQRLYAEPCVNFNGFHAGYGGPGSKTVLPAEARAKLDFRLVPDQDPEEVPELLRRHLEAQGFHDVEVVVLEKGERPARSDLAHPFVALARRALEEAFGERPVLYPNMAGSGPMHPFLHHLKAPAVGLGVGYPGSRVHSPNEHIRVRDFERGVQALLRLLELFFLGR", "soluble on expression in E. coli": "soluble"}
{"sequence": "MEAYEKHYQELRQAKNIDGKPFQLIPVPVTRKVVKEADCKGSYLNFYIGNEVVLVPVYGDEHDKLGLQIIEGQFPGRRIVGIYVNELYAYGGMIHCVTQQHIELEHHHHHH", "soluble on expression in E. coli": "not soluble"}
{"sequence": "MEDEHSRQAYVDQLGLLEEGADEVFEEILAAATSYFQTPIALISILDHQRQWFRASIGLDIRQTPRRDSFCAYAILGKGVFEVADATLDPRFRDNPYVQGEPRIRFYAGAPLATAEGLNLGSLCVIDREPRGPLAERDVAMLEHFARLVMARIHTLRSTNYIDEPTGLYNRLRLQEDVSLRLQRDGALTVIAADLLPLALLNTIIRTLGYPFSNDLMLEARDRIRAELPDFTLYKISPTRFGLLLPRQQQEETESVCLRLLRAFESPVVCRGIPIKANVGLGVLPLADDTLDGDQDWLRLVVSAADDARDRGVGWARYNPPLDQAQQRAFTLLTSLSQAIGTEEGFHLVYQPKIDLPTGRCTGVEALLRWRHPQLGFVSPAEFVPLAEKTALMRPLSDWVLRHAMAQLAQWNARNIPLRLAINVSASDMEDSSFLEEAVRLAKTYDIDLSALELEFTESVLIRDASAVGSVLLRARELGMGIAVDDFGTGYSNWTYLRDLPITAIKLDQSFTRDLAGSPKAQSVTQAVIGLASQLGYRVVAEGIETHDTFHLLQAWGCHEGQGYLIAQPMLPEQLEDWLRRLEHHHHHH", "soluble on expression in E. coli": "not soluble"}
{"sequence": "MEDLDAYRAACANRIRRLERYKKARSFCSLETDEPTSSSPSLSSNSDVSQENGSSTFDMIREKMFSLMENDMTLLKQLLQLGDQISEIKKERLRRTMSQNSLEYDEEDEKEDKFDSGFSASMSAVTNLYVDDERPQFFSRQNSVLRIPIPPRSSNRFGPRRVIRRPSDILPRQQTNNIRTLHVNSDDSDSSSSGSKTHSPSSSVYNASTLILPSKTTKNRSSNSSIDSGIRDEQLTPSPTFESVVI", "soluble on expression in E. coli": "not soluble"}
{"sequence": "MEDQLTIFIISDSLGETAKAIAKACLSQFPGHDDWHFQRFSYINSQERLEQVFEEASQKTVFMMFSLVDVALASYAQKRCESEHYAYVDLLTNVIQGISRISGIDPLGEPGILRRLDNDYFKRVESIEFAVKYDDGRDPRGILQADLVIIGISRTSKTPLSMFLADKNIKVINIPLVPEVPVPKELRMIDSRRIIGLTNSVDHLNQVRKVRLKSLGLSSTANYASLERILEETRYAEEVMKNLGCPIINVSDKAIEETATIILEILKTNGQVAKNLLEHHHHHH", "soluble on expression in E. coli": "not soluble"}
{"sequence": "MEEDSIHLPTHLRLQPIYWSRDDVAQWLKWAENEFSLRPIESNKFEMNGKALLLLTKEDFRYRSPHSGDVLYELLQHILKQRKSRMLFSPFFPPGDSIHTKPEVLLHQNHDEDNCVQRTPRTPAESVHHNPPTIELLHRPRSPITTNHRPSPDPEQQRPQRSPLDNMSRRLSPVEKAQGPRLQQENNHQETYPLSVSPVENNHCLPSSPWQESTRVIQLMPSPIMHPLILNPRHSHSVDFKQSRHSEDGMNREGKPINLSHREDLAYLNHIMVSMSPPEEHAMPIGRIADCRLLWDYVYQLLSDSRYENFIRWEDKESKIFRIVDPNGLARLWGNHKNRTNMTYEKMSRALRHYYKLNIIRKEPGQRLLFRFMKTPDEIMSGRTDRLEHLESQVLDEQTYQEDEPTIASPVGWPRGNLPTGTAGGVMEAGELGVAVKEETRE", "soluble on expression in E. coli": "soluble"}
{"sequence": "MEEKPKYKRILLKLSGEAFAGEQGYGIDPAFLEYISHEIKNVYDLGVQVAIVIGGGNIFRGFQGKEIGVDRATADYMGMLATVINALALQSALENHVNIPTRVLSAIEMRQVAEPYIRRRAIRHLEKGRIVIFAGGTGNPFFSTDTAAALRAAEIGAEVLIKATKVGGIYDKDPEKYPDAVLIKEISYLEVINMGLKVMDHTALTLCKENEIPIIVLNVKEKGNLRRAVLGEEVGSVVRGLEHHHHHH", "soluble on expression in E. coli": "not soluble"}
